In the supplement of paper PMC10567573:

B1: KCNA3 (parent)
chain: GERVVINISGLRFETQLKTLCQFP
B2: ZNF649 (parent)
chain: EHERAHRGEKPHGCSLCGKAFYKR

Variants of: B1
Assay: protein stability index of a GFP-peptide fusion (GPS, HEK-293T) (PSI 1-6); higher = more stable
Settings: c terminus: a fixed tail appended
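Note: lentivirally expressed fusions sorted by FACS into six bins by GFP to DsRed ratio, PSI derived from sequencing read proportions per bin multiplied by bin number.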

Variant | protein stability index
HERVVINISGLRFETQLKTLCQFP | 2.1
IERVVINISGLRFETQLKTLCQFP | 3.44
LERVVINISGLRFETQLKTLCQFP | 2.66
QERVVINISGLRFETQLKTLCQFP | 1.95
SERVVINISGLRFETQLKTLCQFP | 3
CERVVINISGLRFETQLKTLCQFP | 2.8
NERVVINISGLRFETQLKTLCQFP | 2.16
TERVVINISGLRFETQLKTLCQFP | 2.96
KERVVINISGLRFETQLKTLCQFP | 2.52
MERVVINISGLRFETQLKTLCQFP | 3.17
WERVVINISGLRFETQLKTLCQFP | 4.64
RERVVINISGLRFETQLKTLCQFP | 3.52
DERVVINISGLRFETQLKTLCQFP | 1.82
YERVVINISGLRFETQLKTLCQFP | 4.07
GHRVVINISGLRFETQLKTLCQFP | 1.45
GTRVVINISGLRFETQLKTLCQFP | 2.21
GGRVVINISGLRFETQLKTLCQFP | 2.35
GFRVVINISGLRFETQLKTLCQFP | 1.98
GQRVVINISGLRFETQLKTLCQFP | 3.74
GNRVVINISGLRFETQLKTLCQFP | 2.26
GLRVVINISGLRFETQLKTLCQFP | 3.35
GKRVVINISGLRFETQLKTLCQFP | 2.2
GMRVVINISGLRFETQLKTLCQFP | 2.93

Variant | protein stability index
GPRVVINISGLRFETQLKTLCQFP | 4.1
GERVVICISGLRFETQLKTLCQFP | 2.1
GERVVIEISGLRFETQLKTLCQFP | 2.1
GERVVIDISGLRFETQLKTLCQFP | 1.83
GERVVPNISGLRFETQLKTLCQFP | 3.15
GERVVHNISGLRFETQLKTLCQFP | 1.78
GERVVQNISGLRFETQLKTLCQFP | 3.56
GERVVANISGLRFETQLKTLCQFP | 2.21
GERVVNNISGLRFETQLKTLCQFP | 3.47
GERVVTNISGLRFETQLKTLCQFP | 2.75
GERVVDNISGLRFETQLKTLCQFP | 2.46
GERVVSNISGLRFETQLKTLCQFP | 2.86
GERVVMNISGLRFETQLKTLCQFP | 1.32
GERVVKNISGLRFETQLKTLCQFP | 2.68
GERVVENISGLRFETQLKTLCQFP | 2.52
GERVVRNISGLRFETQLKTLCQFP | 2.21
GERVVGNISGLRFETQLKTLCQFP | 1.74
GERVVYNISGLRFETQLKTLCQFP | 1.33
GERVVCNISGLRFETQLKTLCQFP | 1.38
GEPVVINISGLRFETQLKTLCQFP | 2.26
GEDVVINISGLRFETQLKTLCQFP | 2.44
GEMVVINISGLRFETQLKTLCQFP | 4.26
GEYVVINISGLRFETQLKTLCQFP | 3.34

Variant | protein stability index
GEKVVINISGLRFETQLKTLCQFP | 2.73
GESVVINISGLRFETQLKTLCQFP | 2.16
GEAVVINISGLRFETQLKTLCQFP | 3.5
GEGVVINISGLRFETQLKTLCQFP | 1.85
GECVVINISGLRFETQLKTLCQFP | 2.36
GELVVINISGLRFETQLKTLCQFP | 2.75
GEQVVINISGLRFETQLKTLCQFP | 3.4
GEHVVINISGLRFETQLKTLCQFP | 1.04
GETVVINISGLRFETQLKTLCQFP | 3.87
GENVVINISGLRFETQLKTLCQFP | 1.09
GERVEINISGLRFETQLKTLCQFP | 1.47
GERVYINISGLRFETQLKTLCQFP | 2.39
GERVKINISGLRFETQLKTLCQFP | 2.49
GERVAINISGLRFETQLKTLCQFP | 1.53
GERVNINISGLRFETQLKTLCQFP | 1.76
GERVSINISGLRFETQLKTLCQFP | 1.67
GERVTINISGLRFETQLKTLCQFP | 2.42
GERVRINISGLRFETQLKTLCQFP | 2.18
GERVLINISGLRFETQLKTLCQFP | 2.29
GERVCINISGLRFETQLKTLCQFP | 2.49
GERVIINISGLRFETQLKTLCQFP | 2.99
GERVQINISGLRFETQLKTLCQFP | 1.94
GERVDINISGLRFETQLKTLCQFP | 1.55

Variant | protein stability index
GERVFINISGLRFETQLKTLCQFP | 2.05
GERVGINISGLRFETQLKTLCQFP | 2.04
GERVHINISGLRFETQLKTLCQFP | 1.93
GERVPINISGLRFETQLKTLCQFP | 2.17
GERMVINISGLRFETQLKTLCQFP | 2.79
GERKVINISGLRFETQLKTLCQFP | 2.23
GERYVINISGLRFETQLKTLCQFP | 2.16
GERFVINISGLRFETQLKTLCQFP | 3.43
GERQVINISGLRFETQLKTLCQFP | 2.34
GERNVINISGLRFETQLKTLCQFP | 1.64
GERAVINISGLRFETQLKTLCQFP | 1.75
GERWVINISGLRFETQLKTLCQFP | 2.82
GERGVINISGLRFETQLKTLCQFP | 1.66
GERSVINISGLRFETQLKTLCQFP | 2.59
GERRVINISGLRFETQLKTLCQFP | 2.28
GERPVINISGLRFETQLKTLCQFP | 2.13
GERDVINISGLRFETQLKTLCQFP | 1.88
GERCVINISGLRFETQLKTLCQFP | 3.21
GERTVINISGLRFETQLKTLCQFP | 2.27
GERHVINISGLRFETQLKTLCQFP | 2.16
GEREVINISGLRFETQLKTLCQFP | 1.92

Variants of: B2
Assay: as above
Settings: c terminus: a fixed tail appended

Variant | protein stability index
EHERAHRGEKPHGCSLCGMAFYKR | 2.01
EHERAHRGEKPHGCSLCGTAFYKR | 1.97
EHERAHRGEKPHGCSLCGHAFYKR | 2.44
EHERAHRGEKPHGCSLCGIAFYKR | 1.61
EHERAHRGEKPHGCSLCGGAFYKR | 1.41
EHERAHRGEKPHGCSLCGYAFYKR | 2.19
EHERAHRGEKPHGCSLCGEAFYKR | 1.73
EHERAHRGEKPHGCSLCGPAFYKR | 1.42
EHERAHRGEKPHGCSLCGCAFYKR | 1.78
EHERAHRGEKPHGCSLCGNAFYKR | 2.43
EHERAHRGEKPHGCSLCGDAFYKR | 2.13
EHERAHRGEKPHGCSLCGAAFYKR | 1.61
EHERAHRGEKPHGCSLCGVAFYKR | 1.44
EHERAHRGEKPHGCSLYGKAFYKR | 2.48
EHERAHRGEKPHGCSLWGKAFYKR | 3
EHERAHRGEKPHGCSLSGKAFYKR | 3.35
EHERAHRGEKPHGCSLVGKAFYKR | 3.18
EHERAHRGEKPHGCSLRGKAFYKR | 4.43
EHERAHRGEKPHGCSLQGKAFYKR | 4.46
EHERAHRGEKPHGCSLTGKAFYKR | 4.48
EHERAHRGEKPHGCSLCNKAFYKR | 2.49
EHERAHRGEKPHGCSLCQKAFYKR | 1.89
EHERAHRGEKPHGCSLCAKAFYKR | 1.43
EHERAHRGEKPHGCSLCIKAFYKR | 1.67
EHERAHRGEKPHGCSLCEKAFYKR | 2.77

Variant | protein stability index
EHERAHRGEKPHGCSLCDKAFYKR | 2.45
EHERAHRGEKPHGCSLCTKAFYKR | 2.34
EHERAHRGEKPHGCSLCWKAFYKR | 1.54
EHERAHRGEKPHGCSLCKKAFYKR | 2.03
EHERAHRGEKPHGCSLCLKAFYKR | 2.42
EHERAHRGEKPHGCSLCSKAFYKR | 2.5
EHERAHRGEKPHGCSLCYKAFYKR | 1.85
EHERAHRGEKPHGCSLCCKAFYKR | 1.59
EHERAHRGEKPHGCSLCVKAFYKR | 2
EHERAHRGEKPHGCSLCHKAFYKR | 2.15
EHERAHRGEKPHGCSLCMKAFYKR | 1.72
EHERAHRGEKPHGCSLCRKAFYKR | 3.06
EHERAHRGEKPHGCSLCGKIFYKR | 1.95
EHERAHRGEKPHGCSLCGKRFYKR | 2.78
EHERAHRGEKPHGCSLCGKVFYKR | 1.79
EHERAHRGEKPHGCSLCGKDFYKR | 2.51
EHERAHRGEKPHGCSLCGKCFYKR | 2
EHERAHRGEKPHGCSLCGKTFYKR | 2.17
EHERAHRGEKPHGCSLCGKHFYKR | 3.2
EHERAHRGEKPHGCSLCGKMFYKR | 2.62
EHERAHRGEKPHGCSLCGKYFYKR | 1.75
EHERAHRGEKPHGCSLCGKKFYKR | 2.74
EHERAHRGEKPHGCSLCGKFFYKR | 2.57
EHERAHRGEKPHGCSLCGKNFYKR | 1.83
EHERAHRGEKPHGCSLCGKAHYKR | 3.38

Variant | protein stability index
EHERAHRGEKPHGCSLCGKAPYKR | 2.74
EHERAHRGEKPHGCSLCGKADYKR | 2.34
EHERAHRGEKPHGCSLCGKALYKR | 3.61
EHERAHRGEKPHGCSLCGKAYYKR | 2.95
EHERAHRGEKPHGCSLCGKACYKR | 2.13
EHERAHRGEKPHGCSLCGKAMYKR | 2.37
EHERAHRGEKPHGCSLCGKAGYKR | 2.11
EHERAHRGEKPHGCSLCGKASYKR | 2.13
EHERAHRGEKPHGCSLCGKATYKR | 2.14
EHERAHRGEKPHGCSLCGKAVYKR | 2.01
EHERAHRGEKPHGCSLCGKAFYTR | 2.8
EHERAHRGEKPHGCSLCGKAFYRR | 3.06
EHERAHRGEKPHGCSLCGKAFYVR | 1.95
EHERAHRGEKPHGCSLCGKAFYGR | 2.65
EHERAHRGEKPHGCSLCGKAFYSR | 2.03
EHERAHRGEKPHGCSLCGKAFYMR | 3
EHERAHRGEKPHGCSLCGKAFYLR | 1.77
EHERAHRGEKPHGCSLCGKAFYIR | 1.92
EHERAHRGEKPHGCSLCGKAFYCR | 2.64
EHERAHRGEKPHGCSLCGKAFYQR | 2.24
EHERAHRGEKPHGCSLCGKAFYHR | 1.83
EHERAHRGEKPHGCSLCGKAFYDR | 1.9
EHERAHRGEKPHGCSLCGKAFQKR | 2.36
EHERAHRGEKPHGCSLCGKAFWKR | 1.81
EHERAHRGEKPHGCSLCGKAFKKR | 3.13

Variant | protein stability index
EHERAHRGEKPHGCSLCGKAFMKR | 2.69
EHERAHRGEKPHGCSLCGKAFLKR | 2.68
EHERAHRGEKPHGCSLCGKAFIKR | 1.93
EHERAHRGEKPHGCSLCGKAFPKR | 1.52
EHERAHRGEKPHGCSLCGKAFTKR | 1.93
EHERAHRGEKPHGCSLCGKAFAKR | 2.22
EHERAHRGEKPHGCSLCGKAFFKR | 2.95
EHERAHRGEKPHGCSLCGKAFDKR | 2.48
EHERAHRGEKPHGCSLCGKAFVKR | 1.36
EHERAHRGEKPHGCSLCGKAFNKR | 2.35
EHERAHRGEKPHGCSLCGKAFYKP | 3
EHERAHRGEKPHGCSLCGKAFYKA | 3.46
EHERAHRGEKPHGCSLCGKAFYKG | 3.11
EHERAHRGEKPHGCSLCGKAFYKT | 4.1
EHERAHRGEKPHGCSLCGKAFYKW | 3.25
EHERAHRGEKPHGCSLCGKAFYKQ | 4.13
EHERAHRGEKPHGCSLCGKAFYKC | 4.03
EHERAHRGEKPHGCSLCGKAFYKF | 2.65
EHERAHRGEKPHGCSLCGKAFYKV | 2.05
EHERAHRGEKPHGCSLCGKAFYKS | 4.19
EHERAHRGEKPHGCSLCGKAFYKD | 3.35
EHERAHRGEKPHGCSLCGKAFYKY | 3.5
EHERAHRGEKPHGCSLCGKAFYKI | 2.81
